Assay results reported in publication PMC4608766, “The Roles of Arabidopsis CDF2 in Transcriptional and Posttranscriptional Regulation of Primary MicroRNAs” (PLoS Genetics, 2015).

T1: GST-CDF2 (Arabidopsis, UniProt Q93ZL5 1-457)
T1 construct: cycling DOF factor 2 (CDF2), Arabidopsis
T1 sequence (looked up): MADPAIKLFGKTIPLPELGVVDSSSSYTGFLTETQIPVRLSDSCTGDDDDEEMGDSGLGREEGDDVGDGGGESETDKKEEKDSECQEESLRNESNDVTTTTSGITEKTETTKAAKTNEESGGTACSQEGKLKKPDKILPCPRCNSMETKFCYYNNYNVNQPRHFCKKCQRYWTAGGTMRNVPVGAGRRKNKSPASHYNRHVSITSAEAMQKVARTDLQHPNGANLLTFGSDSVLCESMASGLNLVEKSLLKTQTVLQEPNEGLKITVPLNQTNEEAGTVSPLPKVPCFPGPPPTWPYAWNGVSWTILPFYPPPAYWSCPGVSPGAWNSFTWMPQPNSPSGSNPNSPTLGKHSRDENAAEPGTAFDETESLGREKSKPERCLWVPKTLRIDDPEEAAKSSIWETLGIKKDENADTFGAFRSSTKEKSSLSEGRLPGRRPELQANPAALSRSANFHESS

T2: MBP-CDF2 (Arabidopsis, UniProt Q93ZL5 1-457)
T2 construct: cycling DOF factor 2 (CDF2), Arabidopsis; source: E. coli BL21 (DE3), purified (New England Biolabs protocol)
T2 sequence (looked up): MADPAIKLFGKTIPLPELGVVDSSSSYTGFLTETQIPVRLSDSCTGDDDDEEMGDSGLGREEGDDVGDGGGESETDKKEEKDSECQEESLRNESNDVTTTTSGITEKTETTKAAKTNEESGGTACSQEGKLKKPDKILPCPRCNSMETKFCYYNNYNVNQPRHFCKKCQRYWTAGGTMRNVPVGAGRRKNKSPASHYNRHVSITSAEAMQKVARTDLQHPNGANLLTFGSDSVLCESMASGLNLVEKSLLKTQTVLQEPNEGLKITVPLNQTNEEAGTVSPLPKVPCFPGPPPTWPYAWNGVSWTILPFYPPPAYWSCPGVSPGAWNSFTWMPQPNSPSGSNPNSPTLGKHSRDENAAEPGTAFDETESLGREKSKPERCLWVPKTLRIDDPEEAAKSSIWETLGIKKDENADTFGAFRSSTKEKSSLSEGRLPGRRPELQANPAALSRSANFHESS


Assays:
[1] = target: T1, GST-CDF2; assay: pull-down; GST pull-down: GST-CDF2 (or GST) on glutathione beads, MBP-DCL1-RBD added; 40 mM HEPES-KOH pH 7.5, 10 mM KCl, 3 mM MgCl2, 0.4 M sucrose, 1 mM EDTA, 1 mM DTT, 0.2% Triton X-100; 4 C, 1 h; immunoblot; conditions: both partners purified
[2] = target: T2, MBP-CDF2; assay: pull-down; MBP pull-down: MBP-CDF2 (or MBP) on amylose resin, GST-DCL1-RBD added; 40 mM HEPES-KOH pH 7.5, 10 mM KCl, 3 mM MgCl2, 0.4 M sucrose, 1 mM EDTA, 1 mM DTT, 0.2% Triton X-100; 4 C, 1 h; immunoblot; conditions: both partners purified

binding result [1]	binding result [2]	Binder
binds		MBP-DCL1-RBD (domain or fragment, Arabidopsis, UniProt Q9SP32 1733-1909, looked up, Dicer-like 1 (DCL1), Arabidopsis, the two C-terminal dsRBDs (DCL1-RBD, defined as aa 1733-1910); The limits are those printed where the name DCL1-RBD is defined; the methods of the pull-down give none; source: E. coli BL21 (DE3), purified (New England Biolabs protocol)) HPVRELQERCQQQAEGLEYKASRSGNTATVEVFIDGVQVGVAQNPQKKMAQKLAARNALAALKEKEIAESKEKHINNGNAGEDQGENENGNKKNGHQPFTRQTLNDICLRKNWPMPSYRCVKEGGPAHAKRFTFGVRVNTSDRGWTDECIGEPMPSVKKAKDSAAVLLLELLNKTFS
	binds	GST-DCL1-RBD (domain or fragment, Arabidopsis, UniProt Q9SP32 1733-1909, looked up, Dicer-like 1 (DCL1), Arabidopsis, the two C-terminal dsRBDs (DCL1-RBD, defined as aa 1733-1910); The limits are those printed where the name DCL1-RBD is defined; the methods of the pull-down give none) HPVRELQERCQQQAEGLEYKASRSGNTATVEVFIDGVQVGVAQNPQKKMAQKLAARNALAALKEKEIAESKEKHINNGNAGEDQGENENGNKKNGHQPFTRQTLNDICLRKNWPMPSYRCVKEGGPAHAKRFTFGVRVNTSDRGWTDECIGEPMPSVKKAKDSAAVLLLELLNKTFS
